The record followed here is publication PMC12609908.

Common to all, as to assay: EMSA
What all share (conditions): 50 mM Tris-HCl pH 8.0, 100 mM NaCl, 40% glycerol, 5 mM DTT, 2 mM EDTA, 4 °C 1 h; 10% native PAGE in 0.5x TBE at 4 °C

Data set [1] concerns the target T1, CutR Q38A Q38A (Mycobacterium sp. strain JC1) (UniProt D5G1X9).
T1 sequence: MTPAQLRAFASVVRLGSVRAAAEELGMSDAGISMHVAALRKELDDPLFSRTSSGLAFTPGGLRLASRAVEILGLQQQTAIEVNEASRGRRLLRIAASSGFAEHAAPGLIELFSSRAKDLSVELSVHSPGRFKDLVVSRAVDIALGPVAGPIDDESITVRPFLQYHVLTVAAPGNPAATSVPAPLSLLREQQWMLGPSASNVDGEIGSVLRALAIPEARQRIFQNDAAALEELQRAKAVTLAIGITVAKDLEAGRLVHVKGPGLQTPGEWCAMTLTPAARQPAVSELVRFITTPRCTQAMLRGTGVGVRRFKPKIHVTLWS

Data set [2] deals with T2, CutR Q5A Q5A (Mycobacterium sp. strain JC1) (UniProt D5G1X9).
T2 sequence: T1 sequence with Q5A, A38Q

Data set [3] concerns the target T3, CutR R19A R19A (Mycobacterium sp. strain JC1) (UniProt D5G1X9).
T3 sequence: T1 sequence with R19A, A38Q

Data set [4] deals with T4, CutR R40A R40A (Mycobacterium sp. strain JC1) (UniProt D5G1X9).
T4 sequence: T1 sequence with A38Q, R40A

Data set [5] has as its target T5, CutR R7A R7A (Mycobacterium sp. strain JC1) (UniProt D5G1X9).
T5 sequence: T1 sequence with R7A, A38Q

Substitutions are numbered along the chain they refer to.

With “ACCCCGAGTTAAGTGATTCCTTAACTCGCTATTGACGCCATCGCGGCGGCAACGGAAACTAGCCACTTCAGCCACGACGTTGTGAGGATGATCACATGCAA (double strand) [IR1 to CRP motif fragment (101 bp)]”, the binding entry in data set [1] is “binds”; in data set [2], “binds”; in data set [3], “binds”; in data set [4], “no binding”; in data set [5], “binds”.
